In one data set the target is T1, FLAG-tagged Npl4 (S. cerevisiae, UniProt P33755 1-580).
T1 sequence: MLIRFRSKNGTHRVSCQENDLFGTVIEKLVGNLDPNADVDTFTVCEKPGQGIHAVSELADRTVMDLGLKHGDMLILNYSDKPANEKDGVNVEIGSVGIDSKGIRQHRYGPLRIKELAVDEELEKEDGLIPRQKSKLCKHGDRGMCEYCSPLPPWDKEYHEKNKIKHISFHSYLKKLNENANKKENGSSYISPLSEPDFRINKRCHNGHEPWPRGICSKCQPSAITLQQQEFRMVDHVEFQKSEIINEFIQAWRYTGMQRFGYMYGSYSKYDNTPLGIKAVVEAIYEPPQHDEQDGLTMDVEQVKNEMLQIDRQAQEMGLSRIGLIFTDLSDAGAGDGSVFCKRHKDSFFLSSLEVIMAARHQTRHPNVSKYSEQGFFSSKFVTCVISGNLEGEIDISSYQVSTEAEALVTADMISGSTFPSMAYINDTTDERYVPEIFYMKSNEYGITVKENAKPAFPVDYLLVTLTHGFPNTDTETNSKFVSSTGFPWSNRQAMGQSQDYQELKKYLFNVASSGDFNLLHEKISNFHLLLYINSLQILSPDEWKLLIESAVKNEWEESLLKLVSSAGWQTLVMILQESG
Briefly: pull-down.

The data set “cross-linking” deals with the molecule itself. Description: cross-linking.

B1: Ufd1 (natural protein, S. cerevisiae, UniProt P53044 1-361, looked up)
chain: MFSGFSSFGGGNGFVNMPQTFEEFFRCYPIAMMNDRIRKDDANFGGKIFLPPSALSKLSMLNIRYPMLFKLTANETGRVTHGGVLEFIAEEGRVYLPQWMMETLGIQPGSLLQISSTDVPLGQFVKLEPQSVDFLDISDPKAVLENVLRNFSTLTVDDVIEISYNGKTFKIKILEVKPESSSKSICVIETDLVTDFAPPVGYVEPDYKALKAQQDKEKKNSFGKGQVLDPSVLGQGSMSTRIDYAGIANSSRNKLSKFVGQGQNISGKAPKAEPKQDIKDMKITFDGEPAKLDLPEGQLFFGFPMVLPKEDEESAAGSKSSEQNFQGQGISLRKSNKRKTKSDHDSSKSKAPKSPEVIEID
For B1, the binding result with FLAG-tagged Npl4 is “binds”.

B2: Cdc48^2Cys (Cdc48 containing S286C and R333C) (enzyme, S. cerevisiae)
chain: MGEEHKPLLDASGVDPREEDKTATAILRRKKKDNMLLVDDAINDDNSVIAINSNTMDKLELFRGDTVLVKGKKRKDTVLIVLIDDELEDGACRINRVVRNNLRIRLGDLVTIHPCPDIKYATRISVLPIADTIEGITGNLFDVFLKPYFVEAYRPVRKGDHFVVRGGMRQVEFKVVDVEPEEYAVVAQDTIIHWEGEPINREDEENNMNEVGYDDIGGCRKQMAQIREMVELPLRHPQLFKAIGIKPPRGVLMYGPPGTGKTLMARAVANETGAFFFLINGPEVMCKMAGESESNLRKAFEEAEKNAPAIIFIDEIDSIAPKRDKTNGEVERCVVSQLLTLMDGMKARSNVVVIAATNRPNSIDPALRRFGRFDREVDIGIPDATGRLEVLRIHTKNMKLADDVDLEALAAETHGYVGADIASLCSEAAMQQIREKMDLIDLDEDEIDAEVLDSLGVTMDNFRFALGNSNPSALRETVVESVNVTWDDVGGLDEIKEELKETVEYPVLHPDQYTKFGLSPSKGVLFYGPPGTGKTLLAKAVATEVSANFISVKGPELLSMWYGESESNIRDIFDKARAAAPTVVFLDELDSIAKARGGSLGDAGGASDRVVNQLLTEMDGMNAKKNVFVIGATNRPDQIDPAILRPGRLDQLIYVPLPDENARLSILNAQLRKTPLEPGLELTAIAKATQGFSGADLLYIVQRAAKYAIKDSIEAHRQHEAEKEVKVEGEDVEMTDEGAKAEQEPEVDPVPYITKEHFAEAMKTAKRSVSDAELRRYEAYSQQMKASRGQFSNFNFNDAPLGTTATDNANSNNSAPSGAGAAFGSNAEEDDDLYS
modifications: disulfide bridges between neighbouring protomers after oxidation
In general, stoichiometry N refers to a count of units in the complex or per binding partner. For the molecule B2, the “stoichiometry N” value in “cross-linking” is 6.

Source of the values: paper PMC8818041 (Molecular cell, 2021).
